The target in this experiment is RNA polymerase β subunit of Escherichia coli (Escherichia coli, UniProt P0A8V2 1-1342). The experiment in a line: cryo-EM structure.
RNA polymerase β subunit of Escherichia coli, sequence (P0A8V2 whole entry): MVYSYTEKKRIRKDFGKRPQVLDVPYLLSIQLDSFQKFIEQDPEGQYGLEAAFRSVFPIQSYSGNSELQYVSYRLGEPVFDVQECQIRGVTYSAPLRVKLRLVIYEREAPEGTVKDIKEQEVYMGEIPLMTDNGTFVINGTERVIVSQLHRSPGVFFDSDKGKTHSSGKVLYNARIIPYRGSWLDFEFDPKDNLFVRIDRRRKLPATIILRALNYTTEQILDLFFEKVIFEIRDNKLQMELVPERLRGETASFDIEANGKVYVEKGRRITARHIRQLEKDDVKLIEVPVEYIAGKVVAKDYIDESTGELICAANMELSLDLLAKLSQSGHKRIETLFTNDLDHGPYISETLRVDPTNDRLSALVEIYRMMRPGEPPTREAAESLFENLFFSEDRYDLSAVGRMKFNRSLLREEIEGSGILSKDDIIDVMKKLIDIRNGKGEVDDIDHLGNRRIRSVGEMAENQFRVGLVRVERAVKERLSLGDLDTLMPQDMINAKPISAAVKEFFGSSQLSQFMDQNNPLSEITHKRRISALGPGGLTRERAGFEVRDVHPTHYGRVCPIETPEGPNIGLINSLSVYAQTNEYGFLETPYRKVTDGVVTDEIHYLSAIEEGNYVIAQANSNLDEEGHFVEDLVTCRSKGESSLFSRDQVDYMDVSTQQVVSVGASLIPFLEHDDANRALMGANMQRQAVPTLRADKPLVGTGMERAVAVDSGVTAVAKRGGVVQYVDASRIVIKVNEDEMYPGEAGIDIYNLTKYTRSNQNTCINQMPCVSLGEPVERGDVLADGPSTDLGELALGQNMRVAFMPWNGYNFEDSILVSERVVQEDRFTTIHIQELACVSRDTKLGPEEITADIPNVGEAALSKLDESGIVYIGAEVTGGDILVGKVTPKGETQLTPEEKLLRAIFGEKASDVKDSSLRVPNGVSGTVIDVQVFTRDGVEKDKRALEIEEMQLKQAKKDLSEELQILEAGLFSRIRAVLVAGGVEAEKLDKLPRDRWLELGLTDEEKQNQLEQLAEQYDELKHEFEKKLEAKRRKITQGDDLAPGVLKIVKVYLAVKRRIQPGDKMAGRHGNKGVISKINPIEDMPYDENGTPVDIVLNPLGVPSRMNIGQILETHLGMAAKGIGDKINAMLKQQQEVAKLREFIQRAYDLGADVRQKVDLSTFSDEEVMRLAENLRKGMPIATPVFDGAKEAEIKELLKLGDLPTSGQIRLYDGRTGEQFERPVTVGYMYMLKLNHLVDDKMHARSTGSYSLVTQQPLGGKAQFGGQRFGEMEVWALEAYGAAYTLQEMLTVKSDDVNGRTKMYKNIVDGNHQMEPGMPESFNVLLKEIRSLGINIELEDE

B1: TraR (natural protein, Escherichia coli)
chain: SDEADEAYSVTEQLTMTGINRIRQKINAHGIPVYLCEACGNPIPEARRKIFPGVTLCVECQAYQERQRKHYA
In the case of B1, the binding result is recorded as “binds”.

For the origin of these results see publication PMC7166197 (Molecular cell, 2020).
